We go through 2 molecules from patent publication US20190022179A1 (B G NEGEV TECHNOLOGIES AND APPLICATIONS, published 2019).

In assay [1] the target is T1, recombinant human SOD1^WT, 6His-tagged (N-term), expressed in E. coli (human, UniProt P00441 2-154, in the MST assay labeled with BLUE fluorescent dye NT-495-NHS (lysine chemistry)).
T1 construct: also called wild type SOD1; not shown: N-terminal 6His tag from pHIS1 vector
The assay can be described thus: MST instrument, fluorescence change of labeled SOD1^WT (200 nM), peptide 0-100 µM.

Assay [2] concerns the target T2, recombinant human SOD1^G93A, 6His-tagged (N-term), expressed in E. coli (human, UniProt P00441 2-154, G93A, in the MST assay labeled with BLUE fluorescent dye NT-495-NHS (lysine chemistry)).
T2 construct: Dimer by gel filtration, partially monomerizes and precipitates at 37 C; also called SOD1M; not shown: N-terminal 6His tag from pHIS1 vector
Put plainly: MST instrument, fluorescence change of labeled SOD1^G93A (300 nM), peptide 0-100 µM.

Assay [3] concerns the target T1, recombinant human SOD1^WT, 6His-tagged …. The assay can be described thus: MST fluorescence change, labeled SOD1^WT 200 nM.
Procedure: The assessment of peptide binding to the proteins was carried out using Monolith NT.115 (NanoTemper Technologies, Munchen, Germany). […] The final concentration of either DMSO or DMF in the binding buffer was 1%. […] The binding data were analyzed by a non-linear regression using a logistic (three parameter) function implemented in Prism6 (GraphPad) program.
The binding of synthetic peptides to fluorescently labeled SOD1^WT or SOD1^G93A was assessed using a microscale thermophoresis technique (MST).

T1 sequence (P00441 2-154): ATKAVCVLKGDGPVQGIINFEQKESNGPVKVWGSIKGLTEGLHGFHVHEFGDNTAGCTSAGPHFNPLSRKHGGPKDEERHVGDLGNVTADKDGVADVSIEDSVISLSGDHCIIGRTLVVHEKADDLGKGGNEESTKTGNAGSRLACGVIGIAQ
T2 sequence (P00441 2-154 G94A): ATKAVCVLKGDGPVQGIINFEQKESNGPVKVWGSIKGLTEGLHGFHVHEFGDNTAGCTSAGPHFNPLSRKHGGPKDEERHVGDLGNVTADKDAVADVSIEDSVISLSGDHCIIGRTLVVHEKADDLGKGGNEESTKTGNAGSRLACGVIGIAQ

Turning to LSGDHCIIGRTLVVHEKADD (Synthesized by GL Biochem; purity >90%) [peptide SE-12 (SOD1 aa. 106-125)], the binding result in assay [1] and in assay [2] was “binds” throughout.
Take DKDGVADVSIEDSVISLSGD (Synthesized by GL Biochem; purity >90%) [peptide SE-11 (SOD1 aa. 90-109)]: the binding result in assay [3] is “no binding (tested: peptide 0-100 µM)”; in assay [2], “binds”.
